Patent US20050107584A1

What was measured:
[1] = target: human anti-β2GPI mAb ILA-1; assay: competition ELISA, β2GPI-coated plates, 10 µM peptide
human anti-β2GPI mAb G-3 [2] = assay: as above
human anti-β2GPI mAb G-3 [3] = assay: cyto-ELISA on HUVEC coated with 10 µg/ml β2GPI, 10 µM peptide
human anti-β2GPI mAb G-3 [4] = assay: cell-based or functional assay
[5] = target: human anti-β2GPI mAb ILA-1; assay: competition ELISA, mAb 10 µg/ml preincubated with peptide, β2GPI-coated plates, 10 µM peptide
[6] = target: human anti-β2GPI mAb ILA-1; assay: cyto-ELISA on HUVEC coated with 10 µg/ml β2GPI, 10 µM peptide
[7] = target: human anti-β2GPI mAb ILA-1; assay: cell-based or functional assay
[8] = target: human anti-β2GPI mAb ILA-3; assay: competition ELISA, β2GPI-coated plates, 10 µM peptide
[9] = target: human anti-β2GPI mAb ILA-3; assay: cyto-ELISA on HUVEC coated with 10 µg/ml β2GPI, 10 µM peptide
[10] = target: human anti-β2GPI mAb ILA-3; assay: cell-based or functional assay

Row | % inhibition of ILA-1 mAb binding to β2GPI [1] [%] | % inhibition of G-3 mAb binding to β2GPI (human anti-β2GPI mAb G-3 [2]) [%] | % inhibition of G-3 mAb binding to HUVEC (human anti-β2GPI mAb G-3 [3]) [%] | % inhibition of adhesion of U937 monocyte cells to HUVEC (human anti-β2GPI mAb G-3 [4]) [%] | E-selectin expression by HUVEC (ELISA O.D.) (human anti-β2GPI mAb G-3 [4]) [O.D.] | ICAM-1 expression by HUVEC (ELISA O.D.) (human anti-β2GPI mAb G-3 [4]) [O.D.] | VCAM-1 expression by HUVEC (ELISA O.D.) (human anti-β2GPI mAb G-3 [4]) [O.D.] | % inhibition of ILA-1 mAb binding to β2GPI [5] [%] | % inhibition of ILA-1 mAb binding to HUVEC [6] [%] | % inhibition of adhesion of U937 monocyte cells to HUVEC [7] [%] | E-selectin expression by HUVEC (ELISA O.D.) [7] [O.D.] | ICAM-1 expression by HUVEC (ELISA O.D.) [7] [O.D.] | VCAM-1 expression by HUVEC (ELISA O.D.) [7] [O.D.] | % inhibition of ILA-3 mAb binding to β2GPI [8] [%] | % inhibition of ILA-3 mAb binding to HUVEC [9] [%] | % inhibition of adhesion of U937 monocyte cells to HUVEC [10] [%] | E-selectin expression by HUVEC (ELISA O.D.) [10] [O.D.] | Binder
1 | 11 | 98 | 92 | 92 | 0.215 | 0.186 | 0.174 | – | – | – | – | – | – | – | – | – | – | CATLRVYKGG [synthetic peptide C (monomer), Cys Ala Thr Leu Arg Val Tyr Lys Gly Gly]
2 | – | – | – | – | – | – | – | 97 | 95 | 84 | 0.239 | 0.204 | 0.252 | – | – | – | – | NTLKTPRVGG [synthetic peptide A (monomer), Asn Thr Leu Lys Thr Pro Arg Val Gly Gly]
3 | 10 | – | – | – | – | – | – | – | – | – | – | – | – | 77 | 72 | 95 | 0.211 | KDKATFGTHDG [synthetic peptide B (monomer), Lys Asp Lys Ala Thr Phe Gly Thr His Asp Gly]
